Assay results: the RNAGym collection of RNA variant scans (doi:10.7554/elife.80360)

B1: Hairpin Ribozyme (parent)
chain: GUCCUCUUUCACGUGCGCGUGAAAGAGAGAAGUGAACCAGAGAAACACACGUUGUGGUAUAUUACCUGGUA

Variants of: B1
Experiment: self-cleavage, relative activity (ratio to wild type); higher = more cleavage; co-transcriptional

| Variant | self-cleavage |
| --- | --- |
| U33C G57A | 0.242 |
| G34C C65A | 1.45 |
| G34C G54A | 1.2 |
| A35U A49G | 0.31 |
| U33C G69C | 0.114 |
| U33C G69A | 0.0835 |
| G34A G42U | 0.406 |
| G34C U53C | 1.36 |
| G34C U53G | 1.03 |
| G34C U53A | 0.963 |
| A35G G57U | 0.205 |
| A35G G57A | 0.222 |
| G34C G57U | 0.96 |
| G34C G57A | 0.427 |
| G34C U55G | 1.19 |
| G34C U55A | 1.16 |
| A35U G51A | 0.965 |
| A35U G51U | 0.794 |
| A35U G51C | 0.484 |
| A35C G57U | 0.318 |
| A35C G57C | 0.134 |
| G34U A45G | 0.472 |
| G34A G51C | 1.15 |
| G34A G51A | 1.28 |

| Variant | self-cleavage |
| --- | --- |
| G34A U62A | 0.315 |
| U33G U67G | 0.0324 |
| G34U A39G | 1.15 |
| G34U A39U | 1.14 |
| G34U C50U | 0.913 |
| G34U C50G | 1.12 |
| U33G G42U | 0.153 |
| A35U G56C | 0.124 |
| A35G A59C | 0.104 |
| G34A A64G | 0.625 |
| G34A U52G | 1.09 |
| G34U A35U | 1.44 |
| G34C A71G | 1.66 |
| A35U C37U | 0.457 |
| A35U C37A | 0.406 |
| G34C A61G | 0.636 |
| G34U U70G | 1.48 |
| G34C A47C | 1.38 |
| U33C A43G | 0.196 |
| A35C C38A | 0.201 |
| U33G C66U | 0.21 |
| A35G G68U | 0.208 |
| U33C A45C | 0.124 |
| U33C A45U | 0.15 |

| Variant | self-cleavage |
| --- | --- |
| A35C A49U | 0.119 |
| A35U G57A | 0.193 |
| G34A C46A | 0.198 |
| G34C C50A | 1.1 |
| A35G C50G | 0.19 |
| A35G C50A | 0.326 |
| A35U A59C | 0.302 |
| G34C A45C | 0.0204 |
| A35C A64C | 0.211 |
| A35C A64G | 0.513 |
| A35U A43C | 0.0178 |
| G34A A61U | 0.218 |
| A35C C46G | 0.0823 |
| U33C C65G | 0.138 |
| U33C C65A | 0.159 |
| G34A A71U | 1.02 |
| A35G A36C | 0.495 |
| A35G A36U | 0.695 |
| U33G A41G | 0.0864 |
| A35U U55A | 0.129 |
| G34A A43U | 0.18 |
| U33C A61G | 0.0977 |
| G34U A64U | 0.883 |
| G34C C46U | 0.109 |

| Variant | self-cleavage |
| --- | --- |
| U33C C38A | 0.087 |
| A35U C46G | 0.146 |
| A35G C38G | 0.129 |
| A35G C38U | 0.371 |
| A35G U58G | 0.881 |
| A35G G40C | 0.175 |
| A35U U58G | 0.553 |
| A35U U58C | 0.798 |
| A36C A41G | 0.894 |
| A35C U63A | 0.13 |
| G34A U67A | 0.194 |
| G34C G51C | 1.44 |
| G34A U70G | 0.979 |
| U33G C50U | 0.14 |
| U33G C50A | 0.123 |
| G34U G69C | 0.759 |
| G34U G69U | 1.1 |
| G34A A41C | 0.826 |
| A35G C65G | 0.221 |
| A35G C65U | 0.227 |
| U33G U55G | 0.0574 |
| U33G U55A | 0.11 |
| A35C A36G | 0.683 |
| A35C A36U | 0.606 |

| Variant | self-cleavage |
| --- | --- |
| G34U A43G | 0.125 |
| A35U A61C | 0.265 |
| U33G G51A | 0.118 |
| U33C A44C | 0.226 |
| G34C A35U | 1.61 |
| A35C U53C | 0.835 |
| A35C U53A | 0.995 |
| U33A U70G | 0.253 |
| U33A U70C | 0.119 |
| A35U C66G | 0.0865 |
| A35U C66U | 0.151 |
| G34C U62A | 0.471 |
| G34C U62G | 0.175 |
| G34A A39U | 0.304 |
| G34A A39C | 0.456 |
| G34A A39G | 0.768 |
| A35G G51A | 0.964 |
| A35G G51U | 0.949 |
| U33C U63C | 0.187 |
| U33A U67A | 0.0848 |
| G34U A49C | 0.433 |
| G34U A49G | 1.49 |
| G34U A49U | 1 |
| U33C G40U | 0.121 |

| Variant | self-cleavage |
| --- | --- |
| U33C G40A | 0.0908 |
| A35G A39C | 0.257 |
| U33C A39U | 0.0555 |
| G34A G68U | 0.325 |
| A35U A64C | 0.143 |
| A35C C48U | 0.101 |
| U33C A41G | 0.193 |
| U33G A47C | 0.0542 |
| G34C U67C | 0.785 |
| G34A A59G | 0.2 |
| G34A G69C | 0.402 |
| G34A G69A | 0.568 |
| U33C A64G | 0.0772 |
| U33C A64C | 0.102 |
| A35G G42A | 0.174 |
| A35G G42C | 0.231 |
| U33G C46G | 0.174 |
| A36C A39C | 0.216 |
| A35C U70G | 0.676 |
| A35C U70A | 0.805 |
| A35U U60A | 0.426 |
| G34U U53A | 1.46 |
| G34U U53G | 1.58 |
| G34U U53C | 0.405 |

| Variant | self-cleavage |
| --- | --- |
| A35G A41C | 1.31 |
| G34C C66G | 0.627 |
| G34C C66U | 1.29 |
| U33A U52A | 0.122 |
| U33C A47C | 0.106 |
| G34C A36U | 0.938 |
| G34C A36C | 1.25 |
| U33C G68A | 0.104 |
| U33C G68U | 0.258 |
| A35U G68U | 0.177 |
| A35U G68C | 0.206 |
| A35C A45U | 0.0921 |
| A35C A45G | 0.083 |
| G34U C66U | 1.31 |
| G34U C66A | 1.02 |
| G34U C66G | 0.548 |
| U33C G51A | 0.231 |
| U33C G51U | 0.144 |
| A35G A45U | 0.25 |
| A35C A41U | 1.35 |
| G34A C37A | 0.534 |
| U33C G42A | 0.0915 |
| A35C G56C | 0.196 |
